Literature values in paper PMC3909715.
Like-named read-outs stand apart in the source and are kept apart here.

Experiments:
Cys34 [1] = biological target: T1, Cys34 (UniProt position 58, QYLQQCPFEDH); experiment: chemical modification; conditions: reduced thiol; ligand state not stated
Cys34 [2] = biological target: T1, Cys34; conditions: reduced thiol (HSA-SH); ligand state not stated
Cys34 [3] = biological target: T1, Cys34; experiment: kinetics; conditions: reduced thiol

Substance: Human serum albumin (HSA) (Homo sapiens)
- pKa (Cys34 [1]): about 8
- pKa (Cys34 [2]): <7
- pKa (Cys34 [3]; ligand-free (fatty acid-free) HSA): 7.9±0.1
- pKa (Cys34 [3]; ligand state not stated): about 8
